Experimental data from patent US20200308299A1 (NATIONAL UNIVERSITY CORPORATION KOCHI UNIVERSITY, published 2020).
Substitutions are numbered along the chain they refer to.

T1: human Glypican-1 (human, UniProt P35052 24-530, limits assumed)
T1 construct: also called human GPC1
T1 sequence: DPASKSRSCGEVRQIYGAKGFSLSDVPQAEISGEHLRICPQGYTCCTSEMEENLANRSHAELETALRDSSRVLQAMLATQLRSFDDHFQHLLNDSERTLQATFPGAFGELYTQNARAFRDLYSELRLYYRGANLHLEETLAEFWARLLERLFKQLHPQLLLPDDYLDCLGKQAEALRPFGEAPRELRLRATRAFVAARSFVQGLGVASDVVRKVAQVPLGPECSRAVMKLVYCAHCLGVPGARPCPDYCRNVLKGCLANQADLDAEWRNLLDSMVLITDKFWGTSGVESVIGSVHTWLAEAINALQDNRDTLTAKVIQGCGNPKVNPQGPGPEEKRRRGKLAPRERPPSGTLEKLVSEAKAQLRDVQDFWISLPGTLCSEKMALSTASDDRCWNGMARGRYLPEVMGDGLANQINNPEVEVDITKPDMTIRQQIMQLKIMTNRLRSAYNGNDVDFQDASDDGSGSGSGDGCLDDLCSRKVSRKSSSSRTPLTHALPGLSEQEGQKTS

T2: mouse Glypican-1 expressed on LLC-mGPC1-16 cells (mouse, UniProt Q9QZF2 24-529)
T2 sequence: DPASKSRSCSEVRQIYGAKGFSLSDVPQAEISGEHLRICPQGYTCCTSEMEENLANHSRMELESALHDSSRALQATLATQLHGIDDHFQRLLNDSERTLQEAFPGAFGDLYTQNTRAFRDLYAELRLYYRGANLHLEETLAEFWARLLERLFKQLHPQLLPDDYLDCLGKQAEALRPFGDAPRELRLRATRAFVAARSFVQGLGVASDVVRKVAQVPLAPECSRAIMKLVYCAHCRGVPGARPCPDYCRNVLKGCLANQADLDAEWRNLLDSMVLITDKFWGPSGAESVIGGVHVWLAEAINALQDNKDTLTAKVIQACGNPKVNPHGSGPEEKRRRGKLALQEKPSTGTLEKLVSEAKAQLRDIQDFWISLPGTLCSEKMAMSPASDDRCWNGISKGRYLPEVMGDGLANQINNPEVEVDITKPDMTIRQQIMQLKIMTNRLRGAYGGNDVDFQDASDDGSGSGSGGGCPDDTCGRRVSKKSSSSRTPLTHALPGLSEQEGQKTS

T3: recombinant human Glypican-1 protein (R&D Systems, CF, 4519-GP-050) (human, UniProt P35052 24-530)
T3 construct: Bought protein; also called recombinant human GPC1
T3 sequence: T1 sequence

T4: human Glypican-1 on the surface of human cancer cell strains (TE8, TE14 and others) (human, UniProt P35052 24-530)
T4 construct: Endogenous GPC1 of the cell strains; also called GPC1; GPC-1
T4 sequence: T1 sequence

B1: anti-Glypican-1 antibody clone K090-01a030 (antibody, mouse IgG2a, kappa, V domains shown)
VH: QVQLQQSGAELVRPGTSVKMSCKAAGYTFTNYWIGWVKQRPGHGLEWIGDIYPGGGYTHYNEKFKGKATLTADTSSSTAYMQLSSLTSEDSAIYYCARERVYYDGSRYFDVWGAGTTVTVSS
VL: DIKMTQSPKFLPVSAGDRVTMTCKASQSVGNNVAWYQQKPGQSPKLLIYYASNRYTGVPDRFTGSGSGTDFTFTISSVQVEDLAVYFCQQHYSSPWTFGGGTKLEIKR
notes: Selected as scFv on phage
B2: anti-Glypican-1 antibody clone K090-01a026 (antibody, mouse IgG2a, kappa, V domains shown)
VH: B1 VH with Q3H, Y108F
VL: B1 VL with K3V, T5S
notes: Selected as scFv on phage
B3: anti-Glypican-1 antibody clone K090-01a017 (antibody, mouse IgG2a, kappa, V domains shown)
VH: B1 VH with Q1E, A9G, I51L, Y103F
VL: B1 VL with D1S, K3V, S7T
notes: Selected as scFv on phage
B4: anti-Glypican-1 antibody clone K090-02a035 (antibody, mouse IgG2a, kappa, V domains shown)
VH: QVQLQQSGAELVKPGASVKLSCKTSGYTFTSYWMHWVKQRPGQGLEWIGNIDPSDSETHYNQKFKDKATLTVDKSSSTAYMQLSGLTSEDSAVYYCARNLGYWGQGTSVTVSS
VL: DIKMTQSPLSLPVSLGDQASISCRSSQSLVHSNGNTYLHWYLQKPGQSPKLLIYKVSNRFSGVPDRFSGSGSGTDFTLKISRVEAEDLGVYFCSQSTHVPYTFGGGTKLEIKR
notes: Selected as scFv on phage
B5: GPC1-CL-MMAF (clone 01a033 conjugated to MC-vc-PAB-MMAF) (antibody, V domains shown)
VH: QVQLKQSGPELVKPGASVKISCKASGYSFTGYYMHWVKQSPEKSLEWIGEINPSTGDTTYNQKFKAKATLTVDKSSSTAYMQLKSLTSEDSAVYYCAREKRDDGVFAYWGQGTLVTVSS
VL: DIVMSQSPKSMSMSVGERVALSCKASENVGTYVSWYQQKPEQSPKLLIYGASNRYTGVPDRFTGSGSATDFTLTISSVQAEDLADYYCGQSYSYPLTFGAGTKLELKR
modifications: MC-vc-PAB-MMAF bound by maleimide to reduced inter-strand cysteines; DAR 4.1 (printed as 3.8 in paragraph 359)
notes: Antibody-drug conjugate of mouse IgG2a clone 01a033; also called 01a033 ADC; GPC1 ADC
B6: anti-Glypican-1 antibody clone K090-01a002 (antibody, mouse IgG2a, kappa, V domains shown)
VH: B5 VH with Q1E, K5Q, A24S, G31R, Q39H, F106L
VL: B1 VL with K3Q, W96L, G100A, I106L
notes: Selected as scFv on phage
B7: anti-Glypican-1 antibody clone K090-01a033 (antibody, mouse IgG2a, kappa, V domains shown)
VH: B5 VH
VL: B5 VL
notes: Selected as scFv on phage; also called clone 01a033; anti-GPC1 monoclonal antibody (01a033)
B8: anti-Glypican-1 antibody clone K090-01a021 (antibody, mouse IgG2a, kappa, V domains shown)
VH: B5 VH with D57G
VL: B1 VL with D1S, K3V, S7T, T72P, W96L, G100A, I106L
notes: Selected as scFv on phage
B9: anti-Glypican-1 antibody clone K090-01a009 (antibody, mouse IgG2a, kappa, V domains shown)
VH: EVQLQQSGPELVKPGASVEISCKASGYSFTGYFMNWVKQSQGKSLEWIGRINPDNGDIFYNQKFKGKATLTVDKSSSTAHMELRSLTSEDSAVYYCARSWNWYFDVWGAGTTVTVSS
VL: DIQMTQSPASLSASVGETVTITCRASENIYSYLAWYQQKQGKSPQLLVYNAKTLAEGVPSRFSGSGSGTQFSLKINSLQPEDFGSYYCQHHYGTPYTFGSGTKLEIKR
notes: Selected as scFv on phage
B10: anti-Glypican-1 antibody clone K090-02a022 (antibody, mouse IgG2a, kappa, V domains shown)
VH: QVQLQQPGPELVKPGASVKMSCKASGYTFTDYYMNWVKQSHGKSLEWIGRVNPSNGGTSYNQKFKGKATLTVDKSLSTAYMQLNSLTSEDSAVYYCARSGENYYAMDYWGQGTSVTVSS
VL: B9 VL with A51G, P59S, H90N, T94V, Y96W, S100G
notes: Selected as scFv on phage
B11: anti-Glypican-1 antibody clone K090-01a042 (antibody, mouse IgG2a, kappa, V domains shown)
VH: QVQLQQPGAELAKPGASVKMSCKASGYTFTRYWMHWVKQRPGQGLEWIGYINPSSGYTEYNQKFKDKATLTADKSSSTAYMQLSSLTSEDSAVYYCVRLGDYSYYFDYWGQGTTLTVSS
VL: DVVMTQTPLSLPVSLGDQASISCRSSQSIVHSNGNTYLEWYLQKPGQSPKLLIYKVSNRFSGVPDRFSGSGSGTDFTLKISRVEAEDLGVYYCFQGSHVPWTFGGGTKLELKR
notes: Selected as scFv on phage
B12: anti-Glypican-1 antibody clone K090-01a007 (antibody, mouse IgG2a, kappa, V domains shown)
VH: QVHLQQSGAELVKPGASVKLSCKASGYTFTSYWMHWVKQRPGQGLEWIGNIDPYDSETHYNQKFKDKATLTVDKSSSTAYMQLSSLTSEDSAVYYCARDSNWGYFDYWGQGTTLTVSS
VL: B4 VL with I2V, K3V, S7T, Y101W, I111L
notes: Selected as scFv on phage
B13: anti-Glypican-1 antibody clone K090-02a006 (antibody, mouse IgG2a, kappa, V domains shown)
VH: EVQLQQSGAELVKPGASVKISCRASGYSFTGYNMNWVKQSHGKSLEWIGNINPYYGTTNYNQKFKGKATLTVDKSSSTAYMQLNSLTSEDSAVYYCASDGYYGAMDYWGQGTSVTVSS
VL: DIKMTQSPKFMSTSVGDRVSVTCKASQNVGTYVAWYQQKPGQSPKALIYSASYRYSGVPDRFTGTGSGTDFTLTISNVQSEDLAEYFCQQYYNYPLTFGAGTKLELKR
notes: Selected as scFv on phage
B14: anti-Glypican-1 antibody clone K090-01a016 (antibody, mouse IgG2a, kappa, V domains shown)
VH: QVHLQQSGPELVKPGASVKISCKASGYTFTDYYINWVKQKPGQGLEWIGYIDPYNDGSKYNEKFKGKATLTSDKSSSTAYMELSSLTSEDSAVYYCARTPYYSFYSYGFYFDYWGQGTTLTVSS
VL: DIVLTQSPASLAVSLGQRATISCRASKSVSTSSYSYMHWYQQKPGQPPKLLIKYASYLESGVPARFSGSGSGTDFTLNIHPVEEEDAATYYCQHSREFPLTFGAGTKLELKR
notes: Selected as scFv on phage
B15: anti-Glypican-1 antibody clone K090-02a002 (antibody, mouse IgG2a, kappa, V domains shown)
VH: EVKLVESGGGLVKPGGSRKLSCAASGFTFSDYGMHWVRQAPEKGLEWVAYISSGSSTIYYADTVKGRFTISRDNAKNTLFLQMTSLRSEDTAMYYCARHSYYSYDVGGDYVMDYWGQGTSVTVSS
VL: DIVMSQSPKFMSTSVGDRVSITCKASQDVGTAVAWYQQKPGQSPKLLIYWASTRHTGVPDRFTGSGSGTDFTLTISNVQSEDLADYFCQQYSSYPLTFGAGTKLEIKR
notes: Selected as scFv on phage
B16: anti-Glypican-1 antibody clone K090-02b006 (antibody, mouse IgG2a, kappa, V domains shown)
VH: B15 VH with K3Q, M93I, A97V, S103N, V106I, D109Y, V111A
VL: DIVLTQSPSSLSASLGERVSLTCRASQEISGYLSWLQQKPDGTIKRLIYAASTLDSGVPKRFSGSRSGSDYSLTISSLESEDFADYYCLQYASYPLTFGAGTKLEIKR
notes: also called biotin-labeled 02b006; biotin-labeled anti-GPC1 antibody 02b006
B17: anti-Glypican-1 antibody clone K090-02a010 (antibody, mouse IgG2a, kappa, V domains shown)
VH: B15 VH with S52N, E89G
VL: B15 VL with M4L, S5T
notes: Selected as scFv on phage
B18: anti-Glypican-1 antibody clone K090-02a014 (antibody, mouse IgG2a, kappa, V domains shown)
VH: EVQLQQSGPELVKPGASVKISCKASGYSFTGYYIHWVKQSPEKSLEWIGEINPSTGDITYNQKFKAKATLTVDKSSSTAYMQLKSLTSDDSAVYYCARERNYDRFAYWGQGTLVTVSS
VL: SIVMTQTPALMAASPGEKVTITCSVSSSISSSNLHWYQQKSETSPKPWIYGTSNLASGVPVRFSGSGSGTSYSLTISSMEAEDAATYYCQQWSSYPLTFGAGTKLEIKR
notes: Selected as scFv on phage
B19: anti-Glypican-1 antibody clone K090-02a034 (antibody, mouse IgG2a, kappa, V domains shown)
VH: B18 VH with I34M, I58T, M81I, D89E
VL: QIVLSQSPAIMSASPGEKVTMTCSASSSVSYMYWYQQKPGSSPRLLIYDTSNLASGVPVRFSGSGSGTSYSLTISRMEAEDAATYYCQQWSSYPLTFGAGTKLELKR
notes: Selected as scFv on phage

Key:
[1] = biological target: T1, human Glypican-1; assay: phage scFv panning, ELISA on immobilised human GPC1, cell-ELISA and flow cytometry on human GPC1 transformants and TE14 (Example 1)
[2] = biological target: T2, mouse Glypican-1 expressed on …; assay: cell-based or functional assay
[3] = biological target: T3, recombinant human Glypican-1 protein …; assay: ELISA on plate-coated recombinant human GPC1
[4] = biological target: T4, human Glypican-1 on the surface of …; assay: flow cytometry on TE8 cells, biotin-labelled 02b006 and streptavidin-PE

| Binder | binding result [1] | also measured |
| --- | --- | --- |
| B1 | binds |  |
| B2 | binds |  |
| B3 | binds |  |
| B4 | binds |  |
| B5 |  | effect of suppressing growth (CellTiter-Glo, 72 hours), LLC-mGPC1-16 against LLC-control-7 [2]: 17 fold; binding result [3]: binds |
| B6 | binds |  |
| B7 | binds | binding result [3]: binds |
| B8 | binds |  |
| B9 | binds |  |
| B10 | binds |  |
| B11 | binds |  |
| B12 | binds |  |
| B13 | binds |  |
| B14 | binds |  |
| B15 | binds |  |
| B16 | binds | binding result [4]: binds |
| B17 | binds |  |
| B18 | binds |  |
| B19 | binds |  |
